Experimental data reported in patent US7718391B2, “Assays for identifying modulators of rhomboid polypeptides” (Medical Research Council, priority 2001, dated 2010).
Each block holds one molecule with its values, some of them ahead of it.

Tests used:
[1] = system: uncleavable Spitz-TGFα chimera (Spitz with residues 140-160 replaced by the equivalent residues from TGFα, with the TGFα C-terminus)
Drosophila Keren = system: T1, Drosophila Keren
T1 sequence: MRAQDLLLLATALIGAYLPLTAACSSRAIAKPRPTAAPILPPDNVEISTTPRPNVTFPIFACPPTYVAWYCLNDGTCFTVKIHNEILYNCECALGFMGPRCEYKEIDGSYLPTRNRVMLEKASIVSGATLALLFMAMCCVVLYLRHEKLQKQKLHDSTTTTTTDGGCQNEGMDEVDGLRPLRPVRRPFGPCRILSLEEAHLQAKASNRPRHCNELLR

[2] = system: human TGFα (EGFP inserted between residues 32 and 33)
Drosophila Gurken = system: T2, Drosophila Gurken
T2 sequence: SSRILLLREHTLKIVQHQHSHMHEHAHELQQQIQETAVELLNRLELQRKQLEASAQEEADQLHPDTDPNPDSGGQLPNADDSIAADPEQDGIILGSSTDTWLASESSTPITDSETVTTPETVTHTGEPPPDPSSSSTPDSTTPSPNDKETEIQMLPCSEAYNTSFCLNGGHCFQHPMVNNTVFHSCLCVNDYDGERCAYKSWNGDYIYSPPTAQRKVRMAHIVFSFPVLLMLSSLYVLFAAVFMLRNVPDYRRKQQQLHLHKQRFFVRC

[3] = system: T3, GFP-Spitz (Drosophila Spitz with EGFP inserted between residues 33 and 34)
T3 sequence: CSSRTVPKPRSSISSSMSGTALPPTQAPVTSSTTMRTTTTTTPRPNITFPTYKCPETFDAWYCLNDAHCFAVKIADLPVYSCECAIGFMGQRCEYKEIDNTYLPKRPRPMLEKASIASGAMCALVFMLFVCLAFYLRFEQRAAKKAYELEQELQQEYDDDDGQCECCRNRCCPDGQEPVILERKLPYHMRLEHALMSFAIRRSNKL

Drosophila EGF receptor = target: T4, Drosophila EGF receptor (UniProt P04412)
T4 sequence: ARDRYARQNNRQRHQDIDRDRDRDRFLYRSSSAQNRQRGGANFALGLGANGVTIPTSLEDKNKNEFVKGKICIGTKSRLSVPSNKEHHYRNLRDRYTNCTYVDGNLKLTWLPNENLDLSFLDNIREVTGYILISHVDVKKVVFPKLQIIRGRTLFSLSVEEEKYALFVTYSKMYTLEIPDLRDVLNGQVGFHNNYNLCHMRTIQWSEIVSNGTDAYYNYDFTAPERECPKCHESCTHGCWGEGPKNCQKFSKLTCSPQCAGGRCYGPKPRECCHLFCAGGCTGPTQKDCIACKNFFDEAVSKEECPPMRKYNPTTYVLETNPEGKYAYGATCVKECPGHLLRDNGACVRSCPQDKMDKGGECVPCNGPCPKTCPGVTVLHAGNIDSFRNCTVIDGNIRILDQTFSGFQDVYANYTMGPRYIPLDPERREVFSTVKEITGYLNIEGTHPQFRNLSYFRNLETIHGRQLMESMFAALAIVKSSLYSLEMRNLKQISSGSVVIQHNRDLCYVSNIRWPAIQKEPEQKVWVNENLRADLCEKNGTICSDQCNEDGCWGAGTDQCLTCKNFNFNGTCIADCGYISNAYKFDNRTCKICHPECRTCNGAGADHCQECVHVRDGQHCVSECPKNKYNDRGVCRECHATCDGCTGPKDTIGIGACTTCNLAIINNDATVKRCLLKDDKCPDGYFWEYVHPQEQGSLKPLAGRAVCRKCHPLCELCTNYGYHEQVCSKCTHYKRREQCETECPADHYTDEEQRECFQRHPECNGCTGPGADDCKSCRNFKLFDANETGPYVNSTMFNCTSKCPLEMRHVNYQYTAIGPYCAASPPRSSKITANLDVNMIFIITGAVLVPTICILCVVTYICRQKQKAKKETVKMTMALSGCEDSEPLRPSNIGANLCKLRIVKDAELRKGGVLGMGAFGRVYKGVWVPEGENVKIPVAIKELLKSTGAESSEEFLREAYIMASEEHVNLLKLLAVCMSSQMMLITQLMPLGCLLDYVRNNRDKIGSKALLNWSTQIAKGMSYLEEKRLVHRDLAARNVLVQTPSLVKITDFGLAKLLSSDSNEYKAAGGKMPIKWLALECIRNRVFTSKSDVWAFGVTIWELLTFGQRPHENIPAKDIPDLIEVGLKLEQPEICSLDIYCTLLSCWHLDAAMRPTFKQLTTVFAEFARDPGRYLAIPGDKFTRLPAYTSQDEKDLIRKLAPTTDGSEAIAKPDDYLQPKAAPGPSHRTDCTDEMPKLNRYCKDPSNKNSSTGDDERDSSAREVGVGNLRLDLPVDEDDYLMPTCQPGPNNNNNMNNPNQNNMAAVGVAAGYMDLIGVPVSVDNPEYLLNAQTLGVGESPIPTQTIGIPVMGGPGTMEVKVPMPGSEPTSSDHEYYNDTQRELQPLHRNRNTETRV

zebrafish RHBDL2 = assay: Zebrafish RHBDL2 knockout by antisense morpholino injection into embryos; type: in vivo, Zebrafish (Danio rerio); settings: injected into 1-4 cell embryos at 2-4 μM, assessed after 24 and 48 hours
Protocol: Knockout of the zebrafish RHBDL2 was performed by standard procedures (McClintock J M, Kheirbek M A, Prince V E. 2002. Development. 129, 2339-2354.). A morpholino antisense oligonucleotide ([…]) SEQ.ID. 7 complementary to the region of the cDNA surrounding the start of translation was injected into 1-4 cell embryos at 2-4 μM. After 24 and 48 hours the phenotype was assessed and compared with wild-type embryos of equivalent stages. In situ hybridisation to RHBDL2 was performed by standard techniques.
To investigate the role of vertebrate Rhomboids, the zebrafish homologue of human RHBDL2 (sequenced from cDNA clone 2652120, GenBank accession number AW422344) was knocked out using the standard technology of antisense morpholino oligonucleotides (reviewed in Heasman J. Dev Biol. Mar. 15, 2002;243(2):209-14), which allows the rapid removal of a gene function. Zebrafish embryos are a common model system as their embryonic development is easily observed.

release of TGFα = assay: Release/secretion of TGFα from transfected COS cells; type: cell-based, human; settings: expression of truncated Rhomboid-1, compared with control
Protocol: COS cells were grown in DMEM medium (supplemented with 10% foetal calf serum), and transfected with FuGENE 6 Transfection Reagent (Roche). Cells were transfected in 35 mm culture wells with 25-250 ng of each construct and empty plasmid to bring the total DNA to 1 μg per well. 24-30 hours post-transfection the medium was replaced with serum-free medium; this was harvested 24 hours later and cells were lysed in SDS-sample buffer. GFP was detected in conditioned medium and cell lysates by western blot with a rabbit polyclonal antibody. For some experiments the serum-free medium was supplemented with the metalloprotease inhibitor batimastat (British Biotech) or ilomostat (Calbiochem).
Spitz, Star and Rhomboid-1 are the only Drosophila proteins present in the transfected mammalian cells. A possible hypothesis is that these proteins are able to recruit a mammalian protease to a processing complex. If this were the case, the principle candidate for the putative mammalian protease would be a member of the ADAM family of metalloproteases. These proteases have broad specificity and are responsible for the release of a large number of mammalian growth factors, including the Spitz homolog, TGFα. The possible involvement of these proteases was tested with the potent metalloprotease inhibitor batimastat (British Biotechnology) at 1 μM and 10 μM. […]

Rhomboid-1 = target: T5, Rhomboid-1 (Drosophila melanogaster, UniProt P20350); assay: Rhomboid-1 and Star dependent cleavage of GFP-Spitz in transfected COS cells (western blot of medium); type: cell-based; settings: co-expressed with Star and full-length Rhomboid-1 in COS cells
T5 construct: When co-expressed with Star and full-length Rhomboid-1 in the COS cell Spitz cleavage assay; expressed in transfected cells; host or cells: COS cells, pcDNA3.1 constructs, transient transfection
T5 sequence (P20350 1-355): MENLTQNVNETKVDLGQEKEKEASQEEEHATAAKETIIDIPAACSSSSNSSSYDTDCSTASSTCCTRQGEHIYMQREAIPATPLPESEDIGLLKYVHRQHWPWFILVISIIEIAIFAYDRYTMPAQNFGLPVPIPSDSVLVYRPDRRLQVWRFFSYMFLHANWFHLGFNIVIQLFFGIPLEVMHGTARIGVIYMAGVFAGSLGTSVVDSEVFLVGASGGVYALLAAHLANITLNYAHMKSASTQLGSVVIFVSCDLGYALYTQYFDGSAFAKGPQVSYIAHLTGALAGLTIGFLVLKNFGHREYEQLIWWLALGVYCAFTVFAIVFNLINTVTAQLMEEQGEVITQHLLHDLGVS
Protocol: COS cells were grown in DMEM medium (supplemented with 10% foetal calf serum), and transfected with FuGENE 6 Transfection Reagent (Roche). Cells were transfected in 35 mm culture wells with 25-250 ng of each construct and empty plasmid to bring the total DNA to 1 μg per well. 24-30 hours post-transfection the medium was replaced with serum-free medium; this was harvested 24 hours later and cells were lysed in SDS-sample buffer. GFP was detected in conditioned medium and cell lysates by western blot with a rabbit polyclonal antibody. For some experiments the serum-free medium was supplemented with the metalloprotease inhibitor batimastat (British Biotech) or ilomostat (Calbiochem). Cells were transfected as standard with 1 ng of Rhomboid-1 DNA (in 1 μg total DNA) and were then incubated in serum-free medium for 24 hours. The medium was then replaced with 0.5 ml serum free medium containing protease inhibitor at the indicated concentration and incubated for 1 hour. After 1 hour, the medium was collected, cleared by centrifugation, dialysed overnight against several changes of water and lyophilised. The resulting pellets were re-suspended in SDS sample buffer, boiled and analysed by Western blot. Transfections with a secreted form of Spitz were used in parallel to control for non-specific toxicity of the protease inhibitors or general inhibition of the secretory pathway. The proteolytic cleavage assay was recapitulated in a mammalian tissue culture system. Spitz was tagged with GFP near its N-terminus and transiently expressed in COS cells, in the presence or absence of Star and/or Rhomboid-1. The accumulation of the soluble extracellular fragment of GFP-Spitz in the cell medium was then measured by western blot.

Molecule: Drosophila Rhomboid-4
cleavage of polypeptide substrates [1]: Rhomboid-4 cleaves all the polypeptide substrates tested so far, including ... the 'non-cleavable' Spitz/TGFα chimera
cleavage of polypeptide substrates (Drosophila Keren): Rhomboid-4 cleaves all the polypeptide substrates tested so far, including ... Keren
cleavage of polypeptide substrates [2]: Rhomboid-4 cleaves all the polypeptide substrates tested so far, including ... human TGFα
cleavage of polypeptide substrates (Drosophila Gurken): Rhomboid-4 cleaves all the polypeptide substrates tested so far, including ... Gurken
cleavage of polypeptide substrates [3]: Rhomboid-4 cleaves all the polypeptide substrates tested so far, including Spitz
cleavage of polypeptide substrates (Drosophila EGF receptor): Rhomboid-4 cleaves all the polypeptide substrates tested so far, including ... the completely unrelated Drosophila EGF receptor

Molecule: anti-sense morpholino oligo TCTTGCTCTTCGGTGTCATTATCGC: morpholino antisense oligonucleotide complementary to the region of zebrafish RHBDL2 cDNA surrounding the start of translation (all phosphorodiamidate morpholino (PMO))
embryo phenotype after knockout (zebrafish RHBDL2): specific defects in the brain, the otic placode and the tail

ability of wild-type Rhomboid-1 to promote GFP-Spitz cleavage (Rhomboid-1): inhibited
B1: Rho-1-NTM1: residues 1 to 149 of Rhomboid-1: N-terminal cytoplasmic domain plus first TMD and part of first extracellular loop; dominant negative (protein, UniProt P20350 1-149, looked up, fragment)
chain: MENLTQNVNETKVDLGQEKEKEASQEEEHATAAKETIIDIPAACSSSSNSSSYDTDCSTASSTCCTRQGEHIYMQREAIPATPLPESEDIGLLKYVHRQHWPWFILVISIIEIAIFAYDRYTMPAQNFGLPVPIPSDSVLVYRPDRRLQ
TGFα synthesis or secretion (release of TGFα): did not interfere
